{"source": "paper PMC10465447", "about": "“Magnetically controlled graphene field-effect transistor biosensor for highly sensitive detection of cardiac troponin I”", "target": "cardiac troponin I (CTNI) (UniProt P19429 2-210)", "sequence (P19429 2-210)": "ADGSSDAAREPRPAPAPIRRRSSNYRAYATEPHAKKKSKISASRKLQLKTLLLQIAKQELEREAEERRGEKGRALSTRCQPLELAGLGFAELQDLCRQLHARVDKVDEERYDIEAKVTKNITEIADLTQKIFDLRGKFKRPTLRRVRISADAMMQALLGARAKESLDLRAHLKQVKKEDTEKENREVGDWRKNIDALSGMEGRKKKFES", "assay": "pull-down with anti-CTNI antibody magnetic beads, supernatant fluorescence; 2 uM aptamer (10 uL), 10 uM CTNI (100 uL); fluorescence about 1400 to 1050 A.U.; PBS pH 7.4 washes; binding buffer not stated; room temperature 2 h (solution pull-down); 30 min bead reaction on sensor", "conditions": "protein: commercial; label: 3'-6-FAM"}
{"binder": "CGTGCAGTACGCCAACCTTTCTCATGCGCTGCCCCTCTTA (ssDNA, 5'-NH2)", "note": "[CTNI aptamer]", "values": [{"measurement": "binding result", "result": "binds"}]}
